Measured values published in patent publication US20250057968A1, “ANTI-DLL3 ANTIBODY AND PHARMACEUTICAL USE THEREOF, AND ANTIBODY-DRUG CONJUGATE CONTAINING ANTI-DLL3 ANTIBODY” (Jiangsu Hengrui Pharmaceuticals Co., Ltd., priority 2021, published 2025).

Target: T1, RatDLL3/CHO-s (Rattus norvegicus, UniProt O88671)
T1 construct: Rat DLL3 full-length protein; expressed in transfected cells; host or cells: CHO-s (Invitrogen, R80007), lentiviral transduction
T1 sequence (O88671 33-589): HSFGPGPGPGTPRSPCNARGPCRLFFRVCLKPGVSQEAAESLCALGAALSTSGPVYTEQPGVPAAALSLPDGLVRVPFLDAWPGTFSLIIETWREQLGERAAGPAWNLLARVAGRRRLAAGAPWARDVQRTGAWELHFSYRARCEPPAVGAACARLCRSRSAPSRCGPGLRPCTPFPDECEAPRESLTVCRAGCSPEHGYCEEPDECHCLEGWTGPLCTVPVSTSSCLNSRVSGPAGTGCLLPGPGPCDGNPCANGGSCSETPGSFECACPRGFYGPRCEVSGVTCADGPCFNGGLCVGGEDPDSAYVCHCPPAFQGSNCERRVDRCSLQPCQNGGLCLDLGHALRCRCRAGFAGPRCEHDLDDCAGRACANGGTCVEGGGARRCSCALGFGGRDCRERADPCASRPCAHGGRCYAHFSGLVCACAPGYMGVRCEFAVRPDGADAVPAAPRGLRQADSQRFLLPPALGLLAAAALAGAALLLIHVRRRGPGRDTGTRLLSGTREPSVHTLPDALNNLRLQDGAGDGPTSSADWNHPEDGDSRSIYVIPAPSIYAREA
Experiment: Cell-level FACS binding assay, RatDLL3/CHO-s cells
Procedure: Cells of the DLL3-expressing small cell lung cancer cell lines H1184 (ATCC, Cat. No. CRL-5858), DLL3/H82, cynoDLL3/CHO-s, and RatDLL3/CHO-s were suspended at 1×10^6/mL in FACS buffer (1% BSA+pH 7.4 PBS), and the cell suspensions were added to a 96-well round-bottom plate (Corning, 3795) at 100 μL/well. The plate was centrifuged at 300 g for 5 min, and the supernatant was removed. Different concentrations of test antibodies were added at 100 μL/well. The plate was incubated in the dark in a refrigerator at 4° C. for 1 h. After 3 washes by centrifugation at 300 g, working concentrations of APC anti-human IgG Fc (BioLegend, 410712) or PE F(ab′)2-goat anti-human IgG (invitrogen, H10104) were added. The plate was incubated in the dark in a refrigerator at 4° C. for 40 min. After 3 washes by centrifugation at 300 g, the geometric mean fluorescence intensity was measured on an Invitrogen flow cytometer, and the EC50 values of the antibodies in binding to DLL3-expressing cells were calculated. The results are shown in Table 11-1, Table 11-2, Table 11-3, and FIG. 1A to FIG. 1C.

BI-764532: positive control molecule, constructed by reference to WO2019234220A1; heavy chain SEQ ID NO: 62, light chain SEQ ID NO: 63 [reference compound]
binding to cells expressing rat DLL3 (in words): No binding
